Assay results: patent US20140221622A1
pIC50: −log10 of the molar value.

Biological target: biotin-labeled cMet (UniProt P08581)
Assay: indirect ELISA: antibody captured on anti-IgG Fc coated plate, biotin-labeled cMet detected with streptavidin-HRP, OD450; fit value of a flat control curve, unit taken from the axis

Sequence of biotin-labeled cMet (P08581 25-932 limits assumed): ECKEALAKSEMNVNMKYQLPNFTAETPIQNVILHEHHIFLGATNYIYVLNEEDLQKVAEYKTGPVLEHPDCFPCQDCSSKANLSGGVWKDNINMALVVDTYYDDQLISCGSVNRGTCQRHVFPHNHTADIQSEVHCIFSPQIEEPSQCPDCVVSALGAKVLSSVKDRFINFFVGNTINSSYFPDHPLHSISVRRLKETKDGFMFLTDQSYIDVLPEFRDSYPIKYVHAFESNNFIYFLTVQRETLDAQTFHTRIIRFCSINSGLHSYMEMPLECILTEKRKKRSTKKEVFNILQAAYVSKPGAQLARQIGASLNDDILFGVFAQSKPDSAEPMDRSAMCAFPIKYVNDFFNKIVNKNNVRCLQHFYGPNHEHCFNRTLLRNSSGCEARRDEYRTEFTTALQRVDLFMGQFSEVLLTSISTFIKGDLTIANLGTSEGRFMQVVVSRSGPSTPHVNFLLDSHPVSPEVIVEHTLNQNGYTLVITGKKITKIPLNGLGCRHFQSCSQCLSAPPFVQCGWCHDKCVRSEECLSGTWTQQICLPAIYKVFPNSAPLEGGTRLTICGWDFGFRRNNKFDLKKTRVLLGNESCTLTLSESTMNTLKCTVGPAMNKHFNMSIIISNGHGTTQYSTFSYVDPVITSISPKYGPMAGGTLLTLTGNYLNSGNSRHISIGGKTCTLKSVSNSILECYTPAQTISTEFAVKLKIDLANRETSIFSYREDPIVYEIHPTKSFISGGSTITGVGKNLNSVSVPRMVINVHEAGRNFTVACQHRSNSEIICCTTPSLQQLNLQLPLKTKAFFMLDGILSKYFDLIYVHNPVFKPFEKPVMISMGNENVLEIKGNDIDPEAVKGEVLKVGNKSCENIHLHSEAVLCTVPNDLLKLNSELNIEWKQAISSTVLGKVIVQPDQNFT

pIC50: 8.96
Substance: IL-1β (antibody)
